Laboratory results from patent publication US20050042205A1.

Molecular target: rat luteal LH/CG receptor (LH/CG-R) expressed from the cloned cDNA (expression vector pCLHR) in transiently transfected human kidney 293 cells (rat) (UniProt P16235)

EC50 of cAMP production: 40 to 80 pM
Substance: human choriogonadotropin, highly purified (CR-123; 12,780 IU/mg) (from UniProt P01215) (ligand)
